# Test results from PMC11363339, “Structural Basis for Methine Excision by a Heme Oxygenase-like Enzyme” (ACS Central Science, 2024).
# Molecular target: the molecule itself
# Experiment: SEC-MALS; size exclusion chromatography coupled with multiangle light scattering on FlcD without a His6-tag
protein,measurement,value
"FlcD without a His6-tag (FlcD_(tagless)) (enzyme, Pseudomonas aeruginosa, FlcD, heme oxygenase-like domain-containing oxidase (HDO) of Pseudomonas aeruginosa, without a His6-tag; see the Supporting Information PDF) MNTRNFSLPQLQNLPIEEARIVADALAVHATSRQIDSAASKLAALAEAGLKGDRQAYAAYQQLLYVLSLSDDVATAQTRRWLARAIYRVEERFMPAADLSRALSEEDFQKRLEQEIAAQSRERHPMSQYVFSGSASRAQLQVFLRHQWFRTFRLYRDAADLLVNLTDVDEAAALARYLYGELGEEDEKGSHPRLLAKLLEAIGLEADFQAVSTMPEEIAYLNNRARAFRHAEVGWGLAVFYITELVVPGNHEKLYRALLQAGLSEDQAEYYKVHISLVPPRAKREWQLIARRIPDVQFQNAFLTSLSQHFRVERAYYDAIWEEMQSVK",stoichiometry N,2
